Results from patent publication US20220340657A1 (L AND L BIO CO LTD NINGBO CHINA, published 2022).
Changes are numbered by the printed parent chain. “And” between values parts separate entries of the source, which are not always exact repeats. Identical values can stand only once. Values belong to the binder of their own block, whether it stands above or below them.

Experiments:
cyno-LAG3-hFc [1] = molecular target: T1, cyno-LAG3-hFc (cynomolgus monkey); assay: ELISA
T1 construct: Bought product; also called cynomolgus monkey LAG-3

human LAG-3-hFc = molecular target: T2, human LAG-3-hFc (human, UniProt P18627 23-422); assay: ELISA
T2 construct: range 23-422; also called hLAG-3-hFc
T2 sequence (looked up): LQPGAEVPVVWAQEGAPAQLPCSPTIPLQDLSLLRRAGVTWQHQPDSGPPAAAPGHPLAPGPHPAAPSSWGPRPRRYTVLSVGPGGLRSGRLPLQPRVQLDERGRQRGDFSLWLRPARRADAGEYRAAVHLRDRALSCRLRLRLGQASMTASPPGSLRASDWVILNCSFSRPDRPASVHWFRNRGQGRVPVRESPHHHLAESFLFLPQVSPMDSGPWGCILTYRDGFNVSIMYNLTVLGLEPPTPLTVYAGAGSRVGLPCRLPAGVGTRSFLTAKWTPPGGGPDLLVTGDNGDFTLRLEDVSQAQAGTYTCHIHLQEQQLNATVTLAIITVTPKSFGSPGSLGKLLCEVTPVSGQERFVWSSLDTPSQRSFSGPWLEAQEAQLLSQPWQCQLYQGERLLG
Method: (§1) After discarding the liquid, a blocking solution of 5% skimmed milk (Bright skimmed milk powder) diluted with PBS was added at 230 μl per well, followed by incubating at 37° C. for 3 hours or 4° C. overnight (16-18 hours) for blocking. Subsequently, the blocking solution was discarded, and the micropiate was washed 5 times with PBST buffer (pH 7.4 PBS containing 0.05% tweeen-20). Then 50 μl/well of the supernatant (containing the antibody to be tested) or a starting concentration of 10 μg/ml of the antibody to be tested, which was diluted 5 times in gradient, was added, followed by incubating the mixture for 1 hour at 37° C. […] After washing the microplate 5 times with PBST, 50 μl/well TIMB chromogenic substrate (KPL, Cat. No.: 52-00-03) was added, and then incubated for […] at room temperature. Finally, 50 μl/well of 1 M H₂SO₄ was added to stop the reaction. The absorbance value at 450 nm was read by […] GO microplate reader (ThermoFisher, Cat. No.: 51119200). The clones with high affinity were selected according to the OD value or the EC₅₀ value was calculated (for antibodies with known concentrations).

cyno-LAG3-hFc [2] = molecular target: T1, cyno-LAG3-hFc; assay: ELISA; remark: listed apart in the source
Method: as §1

hLAG-3-D12-hFc = molecular target: T3, hLAG-3-D12-hFc (human, UniProt P18627 23-239); assay: ELISA
T3 construct: range 23-239
T3 sequence (looked up): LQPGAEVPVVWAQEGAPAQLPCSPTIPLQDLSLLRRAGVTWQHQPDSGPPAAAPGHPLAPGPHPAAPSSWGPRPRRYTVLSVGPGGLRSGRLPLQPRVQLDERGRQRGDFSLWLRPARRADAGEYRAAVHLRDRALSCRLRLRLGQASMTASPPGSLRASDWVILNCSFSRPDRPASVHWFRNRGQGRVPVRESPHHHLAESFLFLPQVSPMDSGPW
Method: as §1

[3] = molecular target: T4, murine LAG-3 his tagged (mLAG-3-his) (mouse, UniProt Q61790 23-406); assay: ELISA
T4 construct: range 23-406; also called mouse LAG-3
T4 sequence: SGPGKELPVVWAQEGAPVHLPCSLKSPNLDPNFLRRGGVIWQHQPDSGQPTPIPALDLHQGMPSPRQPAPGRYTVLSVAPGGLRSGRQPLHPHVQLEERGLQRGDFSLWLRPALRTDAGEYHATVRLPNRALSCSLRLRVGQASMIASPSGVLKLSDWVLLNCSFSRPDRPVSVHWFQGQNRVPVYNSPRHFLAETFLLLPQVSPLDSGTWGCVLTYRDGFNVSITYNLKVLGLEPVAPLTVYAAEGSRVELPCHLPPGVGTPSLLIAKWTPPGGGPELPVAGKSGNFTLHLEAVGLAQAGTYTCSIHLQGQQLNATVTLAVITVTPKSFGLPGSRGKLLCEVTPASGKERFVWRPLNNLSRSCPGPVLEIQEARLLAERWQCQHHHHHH
Method: as §1

human LAG-3-his [4] = molecular target: T5, human LAG-3-his (human, UniProt P18627 23-422); assay: ELISA
T5 construct: range 23-422; also called hLAG-3-his; hLAG-3
T5 sequence: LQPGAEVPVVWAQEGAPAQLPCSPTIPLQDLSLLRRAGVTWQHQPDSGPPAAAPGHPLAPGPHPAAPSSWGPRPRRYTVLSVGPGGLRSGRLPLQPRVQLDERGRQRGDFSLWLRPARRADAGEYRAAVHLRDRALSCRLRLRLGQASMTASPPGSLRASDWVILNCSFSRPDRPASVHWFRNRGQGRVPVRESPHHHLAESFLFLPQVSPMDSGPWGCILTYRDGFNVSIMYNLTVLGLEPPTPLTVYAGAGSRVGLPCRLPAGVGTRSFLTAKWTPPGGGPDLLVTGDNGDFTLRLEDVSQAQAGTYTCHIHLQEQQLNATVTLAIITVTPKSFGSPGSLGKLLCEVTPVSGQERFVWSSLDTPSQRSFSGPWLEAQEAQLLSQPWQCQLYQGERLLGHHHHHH
Method: as §1

human LAG-3-his [5] = molecular target: T5, human LAG-3-his; assay: ELISA on human LAG-3, same experiment
bio-LAG3-mFc = molecular target: T6, bio-LAG3-mFc (human, UniProt P18627 23-450, biotin-labelled); assay: blocking ELISA, LAG-3 on Daudi cells
T6 construct: also called hLAG-3
T6 sequence (looked up): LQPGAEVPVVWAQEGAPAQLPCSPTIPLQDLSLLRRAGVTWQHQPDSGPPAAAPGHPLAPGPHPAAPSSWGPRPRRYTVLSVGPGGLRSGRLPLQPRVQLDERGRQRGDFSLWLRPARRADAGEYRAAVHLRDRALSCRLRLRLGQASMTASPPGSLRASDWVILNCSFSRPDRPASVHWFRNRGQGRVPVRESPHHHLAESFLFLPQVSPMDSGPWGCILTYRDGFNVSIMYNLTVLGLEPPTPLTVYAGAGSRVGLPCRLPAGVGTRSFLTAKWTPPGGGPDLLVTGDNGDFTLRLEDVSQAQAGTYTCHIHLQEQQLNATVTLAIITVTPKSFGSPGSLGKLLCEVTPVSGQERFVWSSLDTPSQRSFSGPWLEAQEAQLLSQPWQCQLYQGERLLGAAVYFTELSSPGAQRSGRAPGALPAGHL

fold weaker than binding to human LAG-3 (cyno-LAG3-hFc [1]): > 200 times
EC50 (human LAG-3-hFc): 0.25 nM
EC50 (cyno-LAG3-hFc [2]): 40.2 nM
EC50 (hLAG-3-D12-hFc): 2.59 nM
binding result [3]: no binding
EC50 (human LAG-3-his [4]): 0.16 nM
EC50 (human LAG-3-his [5]): 0.287 nM and 0.579 nM and 0.44 nM
IC50 (bio-LAG3-mFc): 1.64 nM
B1: humanized anti-human LAG-3 antibody Ab2317 (antibody, human IgG4 S228P, kappa, V domains shown)
VH: QVQLVQSGAEVKKPGASVKVSCKASGYTFTDYEMHWVKQAPGQGLEWIGGIDPETEGIAYNQKFRGRATLTADKSTSTAYMELRSLRSDDTAVYYCTNSNYYGGREAWFAYWGQGTLVTVSS
VL: DIQMTQSPSSLSASVGDRVTITCRASQDIGSSLNWYQQKPGKAPKRLIYATSSLDSGVPSRFSGSRSGSDFTLTISSLQPEDFATYYCLQYVTSPLTFGGGTKVEIKR
notes: LG2317 / LG2343, human kappa / hIgG4

fold weaker than binding to human LAG-3 (cyno-LAG3-hFc [1]): > 200 times
EC50 (human LAG-3-hFc): 0.4 nM
EC50 (cyno-LAG3-hFc [2]): 44.5 nM
EC50 (hLAG-3-D12-hFc): 2.01 nM
binding result [3]: no binding
EC50 (human LAG-3-his [4]): 0.19 nM
EC50 (human LAG-3-his [5]): 0.312 nM
IC50 (bio-LAG3-mFc): 1.76 nM
B2: humanized antibody Ab2325 (antibody, human IgG4 S228P, kappa, V domains shown)
VH: B1 VH with I48M, L70M, A72T, K74T, T97A
VL: B1 VL
notes: LG2317 / LG2348, human kappa / hIgG4
